Patent US20190248863A1 (published 2019)

Columns and labels:
Assay in all cases: cell-based or functional assay
mouse RXFP1 = molecular target: T1, mouse RXFP1 (mouse, UniProt Q6R6I7 1-758)
T1 sequence (looked up): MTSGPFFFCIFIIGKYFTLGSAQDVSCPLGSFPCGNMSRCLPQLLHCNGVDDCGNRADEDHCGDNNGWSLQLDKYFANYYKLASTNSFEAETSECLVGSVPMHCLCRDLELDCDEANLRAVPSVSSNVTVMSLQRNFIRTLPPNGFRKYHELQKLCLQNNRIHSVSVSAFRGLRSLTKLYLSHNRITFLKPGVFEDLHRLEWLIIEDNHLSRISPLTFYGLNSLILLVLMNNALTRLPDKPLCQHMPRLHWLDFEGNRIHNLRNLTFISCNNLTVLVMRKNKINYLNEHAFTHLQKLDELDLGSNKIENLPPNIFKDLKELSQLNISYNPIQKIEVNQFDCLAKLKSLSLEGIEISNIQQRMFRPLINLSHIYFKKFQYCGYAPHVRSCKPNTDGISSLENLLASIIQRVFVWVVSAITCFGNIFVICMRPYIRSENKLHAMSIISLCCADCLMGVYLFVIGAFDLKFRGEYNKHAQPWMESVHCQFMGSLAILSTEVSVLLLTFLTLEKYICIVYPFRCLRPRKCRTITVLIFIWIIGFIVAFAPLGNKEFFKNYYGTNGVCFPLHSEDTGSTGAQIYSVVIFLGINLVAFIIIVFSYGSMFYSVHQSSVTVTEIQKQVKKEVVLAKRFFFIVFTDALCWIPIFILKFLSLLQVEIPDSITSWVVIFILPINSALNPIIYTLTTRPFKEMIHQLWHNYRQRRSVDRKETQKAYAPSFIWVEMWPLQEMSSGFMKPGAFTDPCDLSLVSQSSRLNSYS

dog RXFP1 = dog RXFP1 (dog)
rat RXFP1 = molecular target: T2, rat RXFP1 (rat, UniProt Q6R6I6 1-758)
T2 sequence (looked up): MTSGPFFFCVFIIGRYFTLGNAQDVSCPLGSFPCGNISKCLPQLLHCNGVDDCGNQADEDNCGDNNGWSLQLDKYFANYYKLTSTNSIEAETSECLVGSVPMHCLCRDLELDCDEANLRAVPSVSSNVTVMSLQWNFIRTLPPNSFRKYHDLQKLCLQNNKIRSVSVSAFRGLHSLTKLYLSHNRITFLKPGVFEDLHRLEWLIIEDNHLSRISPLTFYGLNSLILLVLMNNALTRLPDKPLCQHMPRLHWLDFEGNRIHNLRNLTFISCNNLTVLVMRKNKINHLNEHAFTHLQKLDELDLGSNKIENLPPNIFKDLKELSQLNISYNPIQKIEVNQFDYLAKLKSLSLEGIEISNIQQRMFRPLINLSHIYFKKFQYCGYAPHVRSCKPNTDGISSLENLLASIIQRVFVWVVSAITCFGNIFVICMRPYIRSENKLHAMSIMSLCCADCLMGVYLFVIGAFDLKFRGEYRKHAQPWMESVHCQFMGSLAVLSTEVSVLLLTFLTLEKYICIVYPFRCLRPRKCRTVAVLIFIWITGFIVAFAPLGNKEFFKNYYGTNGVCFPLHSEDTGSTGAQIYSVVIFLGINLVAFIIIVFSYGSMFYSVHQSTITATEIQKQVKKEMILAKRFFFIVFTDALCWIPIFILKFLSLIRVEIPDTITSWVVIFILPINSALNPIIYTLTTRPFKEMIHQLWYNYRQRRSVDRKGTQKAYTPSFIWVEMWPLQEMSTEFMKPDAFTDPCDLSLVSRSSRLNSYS

human RXFP1 = molecular target: T3, human RXFP1 (human, UniProt Q9HBX9 1-757)
T3 sequence (looked up): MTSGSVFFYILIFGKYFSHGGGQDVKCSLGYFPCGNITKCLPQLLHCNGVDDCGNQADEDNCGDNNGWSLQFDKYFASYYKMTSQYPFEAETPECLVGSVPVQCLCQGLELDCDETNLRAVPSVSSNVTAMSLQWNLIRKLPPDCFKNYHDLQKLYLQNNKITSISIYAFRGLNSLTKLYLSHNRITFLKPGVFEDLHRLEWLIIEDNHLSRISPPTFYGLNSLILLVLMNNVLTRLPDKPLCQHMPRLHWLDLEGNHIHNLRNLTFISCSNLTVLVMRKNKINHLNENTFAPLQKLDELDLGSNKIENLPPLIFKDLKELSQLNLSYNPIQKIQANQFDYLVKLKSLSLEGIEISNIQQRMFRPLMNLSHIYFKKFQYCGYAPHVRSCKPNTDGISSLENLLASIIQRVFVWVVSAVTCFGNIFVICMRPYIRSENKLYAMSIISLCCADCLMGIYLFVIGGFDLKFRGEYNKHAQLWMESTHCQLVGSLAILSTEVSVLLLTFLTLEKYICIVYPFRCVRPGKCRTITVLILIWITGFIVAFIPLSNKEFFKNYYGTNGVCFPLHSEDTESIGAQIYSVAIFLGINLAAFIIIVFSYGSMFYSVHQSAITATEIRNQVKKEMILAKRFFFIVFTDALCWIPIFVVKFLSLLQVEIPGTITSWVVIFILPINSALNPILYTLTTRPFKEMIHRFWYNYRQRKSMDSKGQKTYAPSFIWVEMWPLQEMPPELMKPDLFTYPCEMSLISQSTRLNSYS

cynomolgus monkey RXFP1 = molecular target: T4, cynomolgus monkey RXFP1 (cynomolgus monkey, UniProt H9ERA2 1-757 (rhesus entry))
T4 sequence: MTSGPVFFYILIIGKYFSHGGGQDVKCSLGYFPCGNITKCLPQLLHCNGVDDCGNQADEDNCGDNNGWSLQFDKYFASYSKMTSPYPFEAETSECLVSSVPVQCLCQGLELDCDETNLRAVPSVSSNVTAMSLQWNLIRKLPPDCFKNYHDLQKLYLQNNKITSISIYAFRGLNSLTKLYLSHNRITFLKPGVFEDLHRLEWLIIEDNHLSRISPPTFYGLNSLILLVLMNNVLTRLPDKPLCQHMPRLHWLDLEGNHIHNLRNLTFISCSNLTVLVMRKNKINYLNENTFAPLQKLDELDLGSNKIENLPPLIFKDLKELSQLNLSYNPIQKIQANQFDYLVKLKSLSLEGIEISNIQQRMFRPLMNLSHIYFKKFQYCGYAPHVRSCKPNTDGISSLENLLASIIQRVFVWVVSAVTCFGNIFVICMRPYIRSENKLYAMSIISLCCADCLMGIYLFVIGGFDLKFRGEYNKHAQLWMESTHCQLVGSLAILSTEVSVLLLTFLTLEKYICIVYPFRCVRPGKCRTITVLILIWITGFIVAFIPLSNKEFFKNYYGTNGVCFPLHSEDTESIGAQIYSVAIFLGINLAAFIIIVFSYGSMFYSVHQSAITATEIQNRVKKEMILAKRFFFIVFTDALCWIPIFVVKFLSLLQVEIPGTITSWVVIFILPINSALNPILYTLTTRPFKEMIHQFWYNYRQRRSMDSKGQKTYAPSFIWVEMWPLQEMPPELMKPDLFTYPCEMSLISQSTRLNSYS

B1: RLX-A-AQ1-20KPEG (ligand)
chain 1: XLYSALANKCCHVGCTKRSLARFC
chain 2: ASWMEEVIKLCGRELVRAQIAICGMSTWS
modifications: para-acetylphenylalanine (pAcF, X) at position 1 of the A chain, linked to a 20 kDa PEG via an oxime linkage
Q: How did the “RLX-A-AQ1-20KPEG Potency Ratio (hRXFP1-1.0), cAMP assay” value (from here on “RLX-A-AQ1-20KPEG Potency Ratio”) (mouse RXFP1) turn out when B1 was run?
A: 0.66 fold

Q: What about the “RLX-A-AQ1-20KPEG Potency Ratio” value (dog RXFP1) of the same binder?
A: 4.7 fold

Q: What about the “RLX-A-AQ1-20KPEG Potency Ratio” value (rat RXFP1) of the same binder?
A: 0.34 fold

Q: And the “RLX-A-AQ1-20KPEG Potency Ratio” value (human RXFP1)?
A: 1 fold

Q: What about the “RLX-A-AQ1-20KPEG Potency Ratio” value (cynomolgus monkey RXFP1) of the same binder?
A: 1.6 fold
